{"source": "paper PMC11310380", "about": "(Cell reports, 2024)", "proteins": {"B1": {"name": "P9-hTTN3 (human Tentonin 3/TMEM150C with the P9 sequence at its N terminus) (natural protein, UniProt B9EJG8 1-249, looked up)", "chain": "MDGKKCSVWMFLPLVFTLFTSAGLWIVYFIAVEDDKILPLNSAERKPGVKHAPYISIAGDDPPASCVFSQVMNMAAFLALVVAVLRFIQLKPKVLNPWLNISGLVALCLASFGMTLLGNFQLTNDEEIHNVGTSLTFGFGTLTCWIQAALTLKVNIKNEGRRVGIPRVILSASITLCVVLYFILMAQSIHMYAARVQWGLVMCFLSYFGTFAVEFRHYRYEIVCSEYQENFLSFSESLSEASEYQTDQV"}}, "molecular_target": "the molecule itself", "assay": "cross-linking", "data": [{"protein": "B1", "values": [{"measurement": "stoichiometry N", "result": 4}]}]}
